Measurements reported in US20210363261A1 (DRAGONFLY THERAPEUTICS, published 2021).
Changes are numbered by the printed parent chain. One block for each binder: values may come before it.

Target: T1, fibroblast activation protein (FAP) expressed on human cell lines LL86, COLO 829 and U-87 MG (human, UniProt Q12884 1-760)
T1 construct: the assays used endogenous FAP on human cell lines
Assay: flow cytometry on LL86, COLO 829 and U-87 MG cells, anti-human IgG detection, MFI fold over background
Method: Multi-specific binding proteins or corresponding monoclonal antibodies (mAb) having the same FAP binding site were diluted and incubated with the cells. Binding was detected using fluorophore-conjugated anti-human IgG secondary antibody. Cells were analyzed by flow cytometry and express as mean fluorescence intensity (MFI) normalized to human recombinant IgG1 stained controls to obtain fold over background (FOB) values.

binding result: binds
B1: corresponding monoclonal antibody having the same FAP binding site as FAP-multi-specific BP 4G8 (antibody, V domains shown)
VH: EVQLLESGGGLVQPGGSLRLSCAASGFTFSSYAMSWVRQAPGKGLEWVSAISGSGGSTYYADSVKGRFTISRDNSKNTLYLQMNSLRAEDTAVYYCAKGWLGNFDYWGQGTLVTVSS
VL: EIVLTQSPGTLSLSPGERATLSCRASQSVSRSYLAWYQQKPGQAPRLLIIGASTRATGIPDRFSGSGSGTDFTLTISRLEPEDFAVYYCQQGQVIPPTFGQGTKVEIK
notes: also called FAP-mAb; anti-FAP mAb

binding result: binds
B2: corresponding monoclonal antibody having the same FAP binding site as FAP-multi-specific BP 29B11 (antibody, V domains shown)
VH: EVQLLESGGGLVQPGGSLRLSCAASGFTFSSYAMSWVRQAPGKGLEWVSAIIGSGGITYYADSVKGRFTISRDNSKNTLYLQMNSLRAEDTAVYYCAKGWFGGFNYWGQGTLVTVSS
VL: B1 VL with S30T, R31S, I50N, G51V, A52G, T54R, Q93I, V94M, I95L
notes: as for B1

binding result: binds
B3: corresponding monoclonal antibody having the same FAP binding site as FAP-multi-specific BP Sibrotuzumab (antibody, V domains shown)
VH: QVQLVQSGAEVKKPGASVKVSCKTSRYTFTEYTIHWVRQAPGQRLEWIGGINPNNGIPNYNQKFKGRVTITVDTSASTAYMELSSLRSEDTAVYYCARRRIAYGYDEGHAMDYWGQGTLVTVSS
VL: DIVMTQSPDSLAVSLGERATINCKSSQSLLYSRNQKNYLAWYQQKPGQPPKLLIFWASTRESGVPDRFSGSGFGTDFTLTISSLQAEDVAVYYCQQYFSYPLTFGQGTKVEIK
notes: as for B1
